Source: patent US20250123280A1, “LABEL-FREE DETECTION OF PROTEASE ACTIVITY” (OREGON HEALTH & SCIENCE UNIVERSITY, priority 2021, published 2025)
Ends that are not written are not given here. Peptide text beside a SMILES is read from it. * marks the point of attachment. Fmoc = O=C(OCC1c2ccccc2-c2ccccc21)*

Columns and labels:
cathepsin B = target: T1, cathepsin B (Homo sapiens, UniProt P07858); test: Cathepsin B assay with peptide 3 and ThT; assay type: biochemical; settings: after treatment with cathepsin B (1000 ng/mL vs 0 ng/mL)
T1 construct: purchased Bio-Techne
Method: Peptide 3 was prepared as a 2.0 mg/mL solution in 1× phosphate buffered saline, pH 7.4 and 5% DMSO. In a typical assay experiment, 50 μL of the peptide 3 solution was mixed 50 μL of 50 mM MES buffer, pH 5 with cathepsin B at a concentration between about 0 and about 1000 ng/mL in a 96-well microplate and the plate was incubated at 37° C. for 2 hours. Then, 10 μL of 0.1 μm-filtered 1 mM aqueous ThT solution was added to each well and mixed for a final concentration of 90 μM ThT. After 15-30 min incubation at room temperature, the ThT fluorescence was measured at room temperature using a Tecan Spark 20M microplate reader.

[1] = ThT fluorescence of self-assembled peptide 2 in assay buffer; settings: peptide 2 0.58 mg/mL in assay buffer, ThT 90 μM
Method: β-sheet rich nanoplatelet formation by self-assembly of peptide 2. […] Nano Lett. 2017, 17 (9), 5546-5554). […] ThT (90 μM) addition to this solution yielded a bright fluorescence with an emission maximum of about 490 nm (see FIG. 2).

[2] = Solubility in aqueous solutions; assay type: physicochemical
[3] = target: T2, Peptide 1 (Fmoc-Phe-Lys-Phe-Glu-Ala-Ala-Asn-Gly-Glu-Glu-Gly-Ser-Gly-Glu-Glu)
T2 chain: FKFEAANGEEGSGEE

[4] = target: the molecule itself; test: self-assembly of peptide 2 in assay buffer; centrifugation, TEM, AFM
Method: Transmission electron microscopy (TEM) and atomic force microscopy (AFM) imaging. […] After incubating at 37° C. for 2.0 hours, the formed aggregates were collected by centrifugation and resuspended in ultrapure water. […] TEM images were taken using a Tecnai microscope (FEI). To prepare TEM samples, 5 μL of solutions were placed on carbon film 200 copper mesh TEM grids. Samples were incubated on TEM grids for about 5 minutes and bloated and air dried. Uranyl acetate was prepared in distilled water at 2% w/v and filtered with a 0.1 μm syringe filter before each use. A 20 μl droplet of this solution was placed on Parafilm and the TEM grid was floated on it for 7 minutes. Excess uranyl acetate was blotted using Whatman paper, and the sample is left to dry at room temperature.
The morphology of these structures was investigated using transmission electron microscopy (TEM) and atomic force microscopy (AFM). […] AFM experiments were performed to further analyze the morphology of self-assembled nano-platelets.

[5] = target: the molecule itself; test: circular dichroism of peptide 1 alone (self-assembly)

Question: With “Fmoc-FKFELAGGAGEEGSGEEE [peptide 3, cathepsin B substrate motif LAGGAG in place of the legumain substrate]” as the molecule, how does the “increase in ThT fluorescence” value (cathepsin B) read?
Answer: ≤ 72 fold

Question: With `C[C@H](NC(=O)[C@H](C)NC(=O)[C@H](CCC(=O)O)NC(=O)[C@H](Cc1ccccc1)NC(=O)[C@H](CCCCN)NC(=O)[C@H](Cc1ccccc1)NC(=O)OCC1c2ccccc2-c2ccccc21)C(=O)N[C@@H](CC(N)=O)C(=O)O` [peptide 2, Fmoc-FKFEAAN] (Fmoc-FKFEAAN-OH) as the molecule, how does the “enhancement in the ThT fluorescence intensity” value [1] read?
Answer: 45 fold

Question: And the “solubility in aqueous solutions” value [2]?
Answer: not soluble in aqueous solutions

B1: Recombinant mouse legumain (protein)
chain: VPVGVDDPEDGGKHWVVIVAGSNGWYNYRHQADACHAYQIIHRNGIPDEQIIVMMYDDIANSEENPTPGVVINRPNGTDVYKGVLKDYTGEDVTPENFLAVLRGDAEAVKGKGSGKVLKSGPRDHVFIYFTDHGATGILVFPNDDLHVKDLNKTIRYMYEHKMYQKMVFYIEACESGSMMNHLPDDINVYATTAANPKESSYACYYDEERGTYLGDWYSVNWMEDSDVEDLTKETLHKQYHLVKSHTNTSHVMQYGNKSISTMKVMQFQGMKHRASSPISLPPVTHLDLTPSPDVPLTILKRKLLRTNDVKESQNLIGQIQQFLDARHVIEKSVHKIVSLLAGFGETAERHLSERTMLTAHDCYQEAVTHFRTHCFNWHSVTYEHALRYLYVLANLCEAPYPIDRIEMAMDKVCLSHY
Question: Which “LC-MS, fraction of peptide 1 cleaved” value [3] does the source give for B1 here?
Answer: almost 30% of the peptide was cleaved by legumain

Question: What about the “ON/OFF ratio of the assay in albumin depleted 20% plasma” value [3] of the same molecule?
Answer: improve the ON/OFF ratio of the assay to about 10

Question: What about the “ThT emission enhancement at 1 mg/mL peptide 1 (500 ng/mL legumain)” value [3] of the same molecule?
Answer: a 28-fold enhancement in its emission was obtained at 1 mg/mL peptide concentration

Question: And the “ThT emission intensity enhancement at 1000 ng/mL legumain (1.0 mg/mL peptide 1, 2 h)” value [3]?
Answer: about 32 fold at 1000 ng/mL legumain concentration

Question: And the “ThT emission intensity increase at peptide 1 below 0.25 mg/mL (500 ng/mL legumain)” value [3]?
Answer: minimal (1.3-1.4 fold)

Question: What about the “ThT fluorescence enhancement at 10.0 ng/mL legumain” value [3] of the same molecule?
Answer: a slight (about 1.3 fold) fluorescence enhancement was obtained at the legumain concentration of 10.0 ng/mL

Question: What about the “ThT fluorescence enhancement at 25.0 ng/mL legumain” value [3] of the same molecule?
Answer: an easily detectable (about 3-fold) fluorescence enhancement was detected at 25.0 ng/mL

Question: And the “ThT fluorescence enhancement in 10% plasma (1000 ng/mL legumain, 25 µM ThT)” value [3]?
Answer: a fluorescence enhancement of about 20 fold was obtained in 10% plasma at the legumain concentration of 1000 ng/mL

Question: And the “ThT fluorescence enhancement in 20% human plasma (1000 ng/mL legumain, 90 µM ThT)” value [3]?
Answer: a detectable fluorescence enhancement (about 2.5 fold)

Question: What about the “ThT fluorescence intensity at 24 hours relative to 2 hours (1000 ng/mL legumain)” value [3] of the same molecule?
Answer: at 24 hours, the fluorescence intensity was about 2.5 higher compared with the intensity at two hours

Question: And the “limit of detection (LOD) of legumain in the peptide 1 / ThT assay” value [3]?
Answer: about 12 ng/mL (0.21 nM)

Question: And the “limit of quantification (LOQ) of legumain in the peptide 1 / ThT assay” value [3]?
Answer: about 25 ng/mL (0.45 nM)

Question: And the “minimum detectable legumain concentration in 10% plasma” value [3]?
Answer: a minimum detectable concentration between 50 ng/mL to 200 ng/mL

B2: Peptide 2 (Fmoc-FKFEAAN) (peptide)
peptide: Fmoc-FKFEAAN
notes: Synthetic peptide bought from GenScript (1048.2 g/mol); It is also the product of hydrolysis of peptide 1 by legumain; It self-assembles into many-copy nanoplatelets; also called protein 2; self-assembly precursor
Question: Does B2 bind [4]?
Answer: binds

Question: Does Fmoc-FKFEAANGEEGSGEE (also called protein 1; the probe) [Peptide 1 (Fmoc-Phe-Lys-Phe-Glu-Ala-Ala-Asn-Gly-Glu-Glu-Gly-Ser-Gly-Glu-Glu)] bind [5]?
Answer: no binding (tested: 0.333 mg/mL)
